# B1: ASM-ab 23A12C3: self-made monoclonal ASM antibody, Koma biotech; heavy chain SEQ ID NO. 29, light chain SEQ ID NO. 30 (antibody)
# heavy: MGWSWIFLFLLSGTAGVHSEVQLQQSGPVLVKPGASVKMSCKASGYTFTDYYMNWVKQSHGKSLEWIGVINPYNDGTSYNQKFKGKATLTVDKSSSTAYMELNSLTSEDSAVYYCAREKLYYYGRDYAMDYWGQGTSVTVSSAKTTPPSVYPLAPGSAAQTNSMVTLGCLVKGYFPEPVTVTWNSGSLSSGVHTFPAVLQSDLYTLSSSVTVPSSTWPSQTVTCNVAHPASSTKVDKKIVPRDCGCKPCICTVPEVSSVFIFPPKPKDVLTITLTPKVTCVVVDISKDDPEVQFSWFVDDVEVHTAQTKPREEQINSTFRSVSELPIMHQDWLNGKEFKCRVNSAAFPAPIEKTISKTKGRPKAPQVYTIPPPKEQMAKDKVSLTCMITNFFPEDITVEWQWNGQPAENYKNTQPIMDTDGSYFVYSKLNVQKSNWEAGNTFTCSVLHEGLHNHHTEKSLSHSPGK
# light: MSSAQFLGLLLLCFQGTRCDIQMTQTTSSLSASLGDRVTISCRSSQDISNYLNWCQQKPDGTVKLLIYYTSRLHSGVPSRFSGSGSGTDYSLTISNLEQEDIATYFCQQDNTLPYTFGGGTKLEIKRADAAPTVSIFPPSSEQLTSGGASVVCFLNNFYPKDINVKWKIDGSERQNGVLNSWTDQDSKDSTYSMSSTLTLTKDEYERHNSYTCEATHKTSTSPIVKSFNRNEC
# modifications: 23A12C3_Heavy chain; 23A12C3_Light chain
# notes: self-made monoclonal ASM antibody, Koma biotech; 30
# Legend:
# Assay type in all cases: in vivo, mouse
# [1] = system: β-amyloid; assay: β-amyloid deposition in brain tissue of APP/PS1 mice (thioflavin S, immunofluorescence, ELISA); conditions: medulla and hippocampus, 50 mg/kg i.p. twice weekly, vs PBS
# Protocol: First, the cerebral cortex and hippocampus tissue of each mouse prepared in Example 1-1 were isolated, and then a tissue fragment was obtained and this was dyed with thioflavin S according to a conventional known method. The results are illustrated in FIG. 3 (cerebral cortex) and FIG. 4 (hippocampus).
# Also, immunofluorescence was performed according to a conventional known method using anti-20G10 (mouse, 1:1000) antibody against Aβ42, anti-G30 (rabbit, […]) antibody against Aβ40, anti-Iba-1 (rabbit, 1:500, Wako) antibody, anti-GFAP (rabbit, 1:500, DAKO) antibody and anti-active caspase3 (rabbit, 1:50, Chemicon) antibody. Tissue fragments were observed using a confocal laser scanning microscope equipped with Fluoview SV1000 imaging software (Olympus FV1000, Japan) or an Olympus BX51 microscope, and the percentage of the area of the dyed area with respect to the area of the entire tissue was quantified using Metamorph software (Molecular Devices).
# Also, β-amyloid deposition was confirmed using commercially available ELISA kits (Biosource). More specifically, hemispheres of the brain of each mouse were homogenized in a buffer containing 0.02 M of guanidine. Thereafter, ELISA was performed for Aβ40 and Aβ42 according to the manufacturer's instructions.
# After fixing the cerebral and hippocampal tissues of the mice, 0.5% thioflavin S (Sigma-Aldrich), anti-20G10 antibodies (mouse, 1:1000) against Aβ42, anti-G30 antibodies (rabbit, […]) against Aβ40, anti-GFAP antibodies (rabbit, 1:500, DAKO), or anti-Iba-1 antibodies (rabbit, 1:500, Wako) were co-cultured. The tissues were analyzed using a laser scanning confocal microscope equipped with Fluoview SV1000 imaging software (Olympus FV1000, Japan) or an Olympus BX51 microscope. Percentage of stained area to total tissue area was quantified and analyzed using Metamorph software (Molecular Devices).
# After fixing the mouse brain and hippocampus, 0.5% thioflavin S (Sigma-Aldrich), anti-GFAP (rabbit, 1:500, DAKO), and anti-Iba-1 (rabbit, 1:500, WAKO) were co-cultured together. The regions were analyzed using a laser scanning confocal microscope equipped with Fluoview SV1000 imaging software (Olympus FV1000, Japan) or an Olympus BX51 microscope. Percentage of stained area to total tissue area was quantified and analyzed using Metamorph software (Molecular Devices).
# Proteins were extracted from mouse brain and hippocampus, and the amounts of Abeta40 (KHB3481, Invitrogen) and Abeta42 (KHB3441, Invitrogen) were measured using ELISA.
# [2] = system: ALS animal model (FUS R521C); assay: Motor function tests (Tail suspension, Hanging wire, Rotarod) in ALS animal model; conditions: ALS mice, 50 mg/kg i.p. twice weekly, vs PBS, FIG. 57A-57C
# [3] = system: ASM protein; assay: ASM protein concentration in plasma of APP/PS1 mice (ELISA); conditions: 50 mg/kg i.p. twice weekly, between groups, FIG. 51C
molecule,measurement,setting,value
B1,deposition of fibrillar Aβ (thioflavin S),"[1]; FIG. 52A, 52B",significantly lower
same,deposition of Aβ40 (ELISA),"[1]; FIG. 53A, 53B",significantly lower
same,deposition of Aβ42 (ELISA),"[1]; FIG. 53A, 53B",significantly lower
same,impairment in motor function,[2],improved
same,plasma ASM protein concentration,[3],no difference
